Paper PMC10070764, “S100B chaperone multimers suppress the formation of oligomers during Aβ42 aggregation” (Frontiers in Neuroscience, 2023)

B1: tetrameric S100B (natural protein, human, UniProt P04271 1-92, looked up)
chain: MSELEKAMVALIDVFHQYSGREGDKHKLKKSELKELINNELSHFLEEIKEQEVVDKVMETLDNDGDGECDFQEFMAFVAMVTTACHEFFEHE
notes: Same chain as m1, isolated as the tetramer; used in the aggregation assays in the Ca^2+-free (apo) state (1.1 mM EDTA); also called apo-S100B tetramer; tetrameric apo-S100B; source: E. coli BL21 (DE3) E. Cline Express, purified to homogeneity
B2: dimeric S100B (natural protein, human, UniProt P04271 1-92, looked up)
chain: B1 chain
notes: also called S100B-Ca^2+ dimer; dimeric S100B-Ca^2+; source: E. coli BL21 (DE3) E. Cline Express, purified to homogeneity

Columns and labels:
[1] = biological target: the molecule itself; assay: SEC + other: electrophoresis; oligomeric state validation of the purified S100B dimer and tetramer preparations, as described (Figueira et al., 2022); conditions not given
[2] = biological target: amyloid-β 1–42 (Aβ42) peptide (UniProt P05067 672-713); assay: cell-based or functional assay
Sequence of amyloid-β 1–42 (Aβ42) peptide (P05067 672-713): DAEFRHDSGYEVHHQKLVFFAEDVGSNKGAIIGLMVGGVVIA

Binder | stoichiometry N [1] | ThT-subtracted X-34 kinetic traces of Aβ42 (2 μM) aggregation: X-34 positive AβO relative to Aβ42 alone, apo-S100B tetramer:Aβ42 ratios up to 0.5 (effect already at 0.25) [2] [%]
B1 | 4 | 25
B2 | 2 | 
